In patent US20140186348A1 (NOVELMED THERAPEUTICS, published 2014):

Tests used:
human properdin [1] = biological target: T1, human properdin (human, UniProt P27918 28-469); test: properdin ELISA (FIG. 27)
T1 construct: also called antigen properdin

human properdin [2] = biological target: T1, human properdin; test: cell-based or functional assay
human properdin [3] = biological target: T1, human properdin; test: properdin ELISA
human properdin [4] = biological target: T1, human properdin; test: competition ELISA: varied antibody with 50 nM properdin on C3b-coated wells

T1 sequence (P27918 28-469 limits assumed): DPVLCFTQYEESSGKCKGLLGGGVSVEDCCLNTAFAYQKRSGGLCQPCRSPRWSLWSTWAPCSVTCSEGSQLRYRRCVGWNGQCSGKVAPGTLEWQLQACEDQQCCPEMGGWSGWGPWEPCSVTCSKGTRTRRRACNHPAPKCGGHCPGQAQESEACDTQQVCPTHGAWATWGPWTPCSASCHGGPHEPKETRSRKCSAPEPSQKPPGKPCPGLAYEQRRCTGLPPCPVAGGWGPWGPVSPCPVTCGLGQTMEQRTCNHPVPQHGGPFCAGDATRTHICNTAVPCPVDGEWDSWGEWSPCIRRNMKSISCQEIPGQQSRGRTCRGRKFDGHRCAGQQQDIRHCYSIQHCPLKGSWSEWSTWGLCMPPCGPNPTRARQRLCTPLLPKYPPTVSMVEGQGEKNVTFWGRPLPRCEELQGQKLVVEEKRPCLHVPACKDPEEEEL

B1: BAP010hum03 (humanized anti-properdin monoclonal antibody) (antibody, V domains shown)
VH: EVQLVQSGAEVKKPGESLRISCKGSGYIFTNYPIHWIRQSPSRGLEWLGFIDPGGGYDEPDERFRDRVTISADKSISTAYLQWSSLKASDTAMYYCARRGGGYYLDYWGQG
VL: DIQMTQSPSSLSASVGDRVTITCRASQDISFFLNWYQQKPGKAPKLLIYYTSRYHSGVPSRFSGSGSGTEFTLTISSLQSEDFAVYYCQHGNTLPWTFGQG
notes: Labelled _HC and _LC; Expressed as human IgG; also called BAP010hum03_HC
**Q.** Does B1 bind (human properdin [1])?
**A.** binds

B2: BAP010hum10 (humanized anti-properdin monoclonal antibody) (antibody, V domains shown)
VH: QVQLQESGPGLVKPSQTLSLTCTVSGYIFTNYPIHWVRQATGQGLEWMGFIDPGGGYDEPDERFRDRVTITADKSTSTAYMELSSLRSEDTAVYYCARRGGGYYLDYWGQG
VL: DIQMTQSPSSLSASVGDRVTITCRASQDISFFLNWYQQKPGKAPKLLIYYTSRYHSGIPPRFSGSGYGTEFTFTISSLEAEDAATYYCQHGNTLPWTFGQG
notes: Labelled _HC and _LC; Expressed as human IgG; also called BAP010hum10_HC
**Q.** Does B2 bind (human properdin [1])?
**A.** binds

B3: NM9401-IgG (murine anti-properdin monoclonal antibody, IgG1) (antibody, V domains shown)
VH: QVQLQQSAPELARPGASVKMSCTASGYIFTNYPIHWVKQRPGQGLEWIGFIDPGGGYDEPDERFRDRATLTADKSSSTAYMQLSSLTSEDSAIYYCARRGGGYYLDYWGQGTTLTVSS
VL: DIQMTQTTSSLSASLGDRVTISCRASQDISFFLNWYQQKPDGTVKLLIYYTSRYHSGVPSRFSGSGSGTDFSLTINNLEQEDFATYFCQHGNTLPWTFGGGTKLEIKR
**Q.** With B3 as the binder, how does the “erythrocyte lysis assay using rabbit erythrocytes, IC50” value (human properdin [2]) read?
**A.** 20 to 30 nM

B4: BAP010-1 (chimeric anti-properdin IgG1) (antibody, V domains shown)
VH: QVQLQQSAPELARPGASVKMSCTASGYIFTNYPIHWVKQRPGQGLEWIGFIDPGGGYDEPDERFRDRATLTADKSSSTAYMQLSSLTSEDSAIYYCARRGGGYYLDYWGQGTTLTVSS
VL: DIQMTQTTSSLSASLGDRVTISCRASQDISFFLNWYQQKPDGTVKLLIYYTSRYHSGVPSRFSGSGSGTDFSLTINNLEQEDFATYFCQHGNTLPWTFGGGTKLEIK
notes: Murine variable domains (heavy chain clone mH6-3g, light chain clone mK10) fused in frame to a human IgG1 constant region and a human kappa constant region; also called chimeric anti-properdin monoclonal antibody; recombinant antibody BAP010-1
**Q.** Which results are given for B4?
**A.** Kd (human properdin [3]): ~0.054 nM; erythrocyte lysis assay using rabbit erythrocytes, IC50 (human properdin [2]): 20 to 30 nM

B5: NM9401-Fab (Fab, V domains shown)
VH: QVQLQQSAPELARPGASVKMSCTASGYIFTNYPIHWVKQRPGQGLEWIGFIDPGGGYDEPDERFRDRATLTADKSSSTAYMQLSSLTSEDSAIYYCARRGGGYYLDYWGQGTTLTVSS
VL: DIQMTQTTSSLSASLGDRVTISCRASQDISFFLNWYQQKPDGTVKLLIYYTSRYHSGVPSRFSGSGSGTDFSLTINNLEQEDFATYFCQHGNTLPWTFGGGTKLEIKR
notes: Fab fragment of the murine NM9401 IgG
**Q.** Which “concentration inhibiting properdin binding to C3b (quantity not named, IC50 implied)” value (human properdin [4]) does the source give for B5 here?
**A.** 72 nM

**Q.** And the “molar ratio of antibody to properdin” value (human properdin [4])?
**A.** 1.2

B6: NM9401-F(ab′)2 (other)
VH: QVQLQQSAPELARPGASVKMSCTASGYIFTNYPIHWVKQRPGQGLEWIGFIDPGGGYDEPDERFRDRATLTADKSSSTAYMQLSSLTSEDSAIYYCARRGGGYYLDYWGQGTTLTVSSAKTT
VL: DIQMTQTTSSLSASLGDRVTISCRASQDISFFLNWYQQKPDGTVKLLIYYTSRYHSGVPSRFSGSGSGTDFSLTINNLEQEDFATYFCQHGNTLPWTFGGGTKLEIKRADAAPTVSIFPPSSEQLTSGGASVVCFLNN
notes: F(ab′)2 fragment of the murine NM9401 IgG
**Q.** With B6 as the binder, how does the “concentration inhibiting properdin binding to C3b (quantity not named, IC50 implied)” value (human properdin [4]) read?
**A.** 29 nM

**Q.** What about the “molar ratio of antibody to properdin” value (human properdin [4]) of the same binder?
**A.** 0.5

B7: BAP010hum02 (humanized anti-properdin monoclonal antibody) (antibody, V domains shown)
VH: QVQLQESGPGLVKPSQTLSLTCTVSGYIFTNYPIHWVRQAPGKGLEWVSFIDPGGGYDEPDERFRDRVTISVDTSKNQFSLKLSSVTAADTAVYYCARRGGGYYLDYWGQG
VL: EIVLTQSPATLSLSPGERATLSCRASQDISFFLNWFQQRPGQSPRRLIYYTSRYHSGIPPRFSGSGYGTDFTLTINNIESEDAAYYFCQHGNTLPWTFGQG
notes: Labelled _HC and _LC; Expressed as human IgG from BioAtla's mammalian vector; also called BAP010hum02_HC
**Q.** Does B7 bind (human properdin [1])?
**A.** binds
